B1: TPR 5TU (parent)
chain: GGAUCUUCUCGAUCUAACAAAAAAGACAAAUCUGCCACAAAGCUUGAGAGCAUCUUCGGAUGCAGAGGCGGCAGCCUUCGGUGGCGCGAUAGCGCCAACGUUCUCAACUAUGACACGCAAAACGCGUGCUCCGUUGAAUGGAGUUUAUCAUG

Fewer inactive variants are shown than the library holds.

Variants of B1 are the subject of the series. Kind of series: polymerase ribozyme fitness, log enrichment relative to wild type (log ratio); higher = more active; in vitro selection for triplet polymerase activity. Summed up:
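Libraries of mutants in each subunit of a heterodimeric triplet polymerase ribozyme were generated by PCR and transcribed. In triplicate, each went through one in vitro selection round: annealing with biotinylated primer, partner subunit and triplets; frozen incubation at −7 °C; gel excision of extended constructs; streptavidin-bead capture; RT-PCR. Fitness, taken from Illumina sequencing of input and output libraries, is the logarithm of a genotype's enrichment over wild-type enrichment, averaged across replicates with inverse-variance weights. The logarithm is base 2, and genotypes needed ≥10 input reads and ≥1 read per output to be kept.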
Regarding GGAUCUUCUCGAUCUAACAAAAAAGACAUAUCUGCCACACAGCUUGAGAGCAUCUUCGGAUUCAGAGGCAGCAGCCUUCGGUGACGCGAUAGCGCAAACGUUCUCAACUAUGACACGCAAAACGCGUGCUCCGUUGAACGGAGUUUAUCAUG, the “polymerase ribozyme fitness (log ratio)” value was at most -4.2.
The result for GGAUCUUCUCGAUCUAACAAAAAAGACAGAUCUGCCACAAAGCUUGAGAGCAACUUCGGAUGCAGAGGCGGCAGCCUUCGGUGGCGCGAUAGCGCCAACGUUCUCAACUGUGACACGCAUAAGGCGUGCUCCGUUGAAUGGAGUUUAUCAUG reads at most -4.2.
The result for GGAUCUUCUCGAUCUAACAAAAAAGACAGAUCUGCCACAAAGCUUGAGAGCAUCUUCGGAUGCAGAGGCGGCAGCCUUCGGUGGCUCGAUAGCGCCAACGUGCUCAACUAUGACACGCAAAACGCGUGCUCCGGUGAAUUGAGUUUAUAAUG reads at most -4.2; that for GGAUCUUCUCGAUCUAACAAAAAAGACAUAUCUGCCACAAAGCUUGAGAGCAUCUUAGGAAGCAGAGGCGGCAGCCUUCGGUGGCGCGAUAGCGCCAACGUUCUCAACUAUGACACGCAAUACGCGUGCUCCGUUGAAUGGAGUUUAUCAUG, at most -4.2; that for GGAUCUUCUCGAUCUAACAAAAAAGACAGAUCUGCCACAAAGCUUGAGAGCAUCUUCGGAUGCAGAGGCGGCAGCCUUCGGUGGCGCGAUAGCUCCAACGUUCUCAACUAUGAUACGCAAAACGCGUACUCCGUUGAAUGGAGUUUAUCAUG, at most -4.2.
The result for GGAUCUUCUCGAUCUAACAAAAAAGACAUAUCUGCCACAAAGCUUGAGAGCAUCUUCGGAUGCAGAGGCGGCAGCCUUCGGUGGCGCGAUAGCGACAACGUUCUCAACUAUGACACGCAAAACGCGUGCUCCGCUGAAUCGAGUUUAUCAUG reads at most -4.2; that for GGAUCUUCUCGAUCUAACAAAAAAGACAUAUUUCCCACAAAGCUUGAGAGCAUCUUCGGAUGCAGAGGCGGUAGCCUUCGGUGGCGCGAUAGCGACAACGUUCUCAACUAUGACACGCAAAACGCGUGCUCCGUUGAAUCGAGUUUAUCAUG, at most -4.2.
As for GGAUCUUCUCGAUCUAACAAAAAAGACAUAUCUGCCACAAAGCUUGAGAUCAUCAUCGGAUGCAGAGGCGGCAGCCUUCGGUGGCCCGAUAGCGCCAACGUUCUCAACUAUGACACGCAAAACGCGUGCUCCGUUGAAUGCAGUUUAUCAUG, the “polymerase ribozyme fitness (log ratio)” value is at most -4.2.
The result for GGAUCUUCUCGAUCUAACAAAAAAGACAUAUGUGCCACAAAGCUUGAGAGCAUCUUCGGAUGCAGAGGCGGCAGUCGUCAGUGGCGCGAUAGCGCCAACGUUCUCAACUAUGACACGCAAAACGCGUGCUCCGUUGAAUGGAGUUUAUCAUG reads at most -4.2.
The result for GGAUCUUCUCGAUCUAACAAAAAAGACAGAUCUGCCACAAAGCUUGAGAGCAUCUUCGGAUGCAGAGCCGGCAGCCUUCGGUGGCGCGAUAGCGCUAACGUGCUCAACUAUGACACGCAAAACGCGUGCUCCGUGGAAUGGAGUUUAUAAUG reads at most -4.2.
The result for GGAUCUUCUCGAUCUAACAAAAAAGACAUAUCUGCCACGAAGCUUGAGAGCAUCAUCGGAUGCAGAGGCGGCAGCCUUCGGUGGCGCGAUAACGCCAACGUUCUCAACUAUGACACGCAAAACGCGUGCUCCGUUGAAUGGAGUUUAUCAUG reads at most -4.2; that for GGAUCUUCUCGAUCUAACAAAAAAGACAUAUCUGCCACACAGCUUGAGAGCAUCUACGGAUGCAGAGGCGGCAGCCUUCGGUGGCGCAAUAGCGCCAACGUUCUCAACUAUGACACGCAAUACGCAUGCUCCGUUAAAUGGAGUUUAUCAUG, -3.9.
On to GGAUCUUCUCGAUCUAACAAAAAAGACAUAUCUGCCACAGAGCUUGAGAGCAACUUCGGAUGCAGAGGCGGCAGCCUUCGGUGGCGCGAUAGCGGCAACGUUCUCAACUAUGACACGCAAAACGCGUGCUCCGUUGAAUGGAGUUUAUCAUG, for which the “polymerase ribozyme fitness (log ratio)” value was at most -4.2.
Consider GGAUCUUCUCGAUCUAACAAAAAAGACAUAUCUGCCACAAAGCUUGAGAGCAUCUUCGGAUGCAGAGGCGGCAGCGUUCGGGGGCGCCAUAGCGCCAACGUUCUCAACUAUGACACGCAAAACGCGUGCUCCGUUGAAUGGAGUUUAUCAUG, for which the “polymerase ribozyme fitness (log ratio)” value was at most -4.2.
In the case of GGAUCUUCUCGAUCUAACAAAAAAGACAUAUCUGCCACAAAGCUUGAGAGCAUCUUCGAAUGCAGAGGCGGCAGCCUUGUGUGUCGCGAUAGCGCCAACGUUCUCAACUAUGACACGCAAAACUCGUGCUCCGUUGAAUGGAGUUUAUCAUG, the “polymerase ribozyme fitness (log ratio)” value is at most -4.2.
Turning to GGAUCUUCUCGAUCUAACAAAAAAGACAGAUCUGCCACAAAGCUUGAGAGCAUCUUCGGAUGCAGAGGCGGCAGCCUCCGGUGGCGCGAUAGCGCCAACGUUCUCAACUAUGACACGCAAAACGCGUGCUCCGUUGAAUGGAGUUUAUCAUG, the “polymerase ribozyme fitness (log ratio)” value is at most -4.2.
With GGAUCUUCUCGAUCUAACAAAAAAGACAUAUCUGCCACAAAGCUUGAGAGCAUUUGUGGAUGCAGAGGCGGCAGCCUUCGGUGGCGCGAUAGUGCCAACGUUUUCAACUAUGACACGCAAAACGCGUGCUCCAUUGAAUGGAGUUUAUCAUG, the “polymerase ribozyme fitness (log ratio)” value was at most -4.2.
Consider GGAUCUUCUCGAUCUAACAAAAAAGACAUAUCUGCCACAAAGCUUGAGAUCAUCUUCGAAUGCAGAGGCGGCAGCCUUCGGUGGCGAGAUAGCGCCAACGUUCUCAACUAUGACACGCAAAACGCGUGCUCCGUUGAAUGGAGUUUAUCAUG, for which the “polymerase ribozyme fitness (log ratio)” value is at most -4.2.
The result for GGAUCUUCUCGAUCUAACAAAAAAGACAUAUCUGCCACAAAGCUUGAGAGCAUCUUCGGAUGCAGAGGCGGCAGCCUUCGGUGGCGCGAUAGCGCCAACGUUCUCAACUAUGACACGCAAAACGCGUGCUCCGUUGAAUGGCGUUUAUCAUG reads -4.15.

For the origin of these results see the RNAGym collection of RNA variant scans (doi:10.1073/pnas.2313332121).
